Blank lines part the entries; values can stand above or below the binder they belong to.
What was measured:
[1] = molecular target: T1, Fc-tagged human PD-L1 extracellular domain (SinoBiological, cat. 10084-H02H) (human, UniProt Q9NZQ7 19-238); assay: SPR, alanine mutants of 33-03-G02
T1 construct: extracellular domain; also called hPD-L1; not shown: Fc tag of the bought protein

[2] = molecular target: T1, Fc-tagged human PD-L1 extracellular …; assay: SPR, captured Fc-PD-L1 ECD, scFv analyte, kinetic
[3] = molecular target: T2, human serum albumin (human, UniProt P02768 25-609); assay: SPR, immobilised HSA, pH 5.5
T2 construct: also called HSA; human SA

[4] = molecular target: T3, recombinant human CD3E ECD (SinoBiological, cat. 10977-H08H) (human, UniProt P07766 23-126); assay: SPR, immobilised CD3e ECD, two-state model (ka1)
T3 construct: extracellular domain; bought protein; also called CD3s

[5] = molecular target: CD3e on Jurkat PD-1 NFAT reporter T cells or on T cells of human PBMCs (human, UniProt P07766 23-207); assay: cell-based or functional assay
[6] = molecular target: T4, human PD-L1 expressed on cells (CHO-PD-L1, HCC1954, HCC827) (human, UniProt Q9NZQ7 19-290); assay: flow cytometry, inhibition of biotinylated PD-1 binding to HCC1954 cells
T4 construct: whole, on cells; also called hPD-L1; PD-L1 expressing cells

[7] = molecular target: T5, recombinant human IL-23R (custom-made by Trenzyme) (human, UniProt Q5VWK5 24-355); assay: SPR, immobilised IL-23R
T5 sequence (looked up): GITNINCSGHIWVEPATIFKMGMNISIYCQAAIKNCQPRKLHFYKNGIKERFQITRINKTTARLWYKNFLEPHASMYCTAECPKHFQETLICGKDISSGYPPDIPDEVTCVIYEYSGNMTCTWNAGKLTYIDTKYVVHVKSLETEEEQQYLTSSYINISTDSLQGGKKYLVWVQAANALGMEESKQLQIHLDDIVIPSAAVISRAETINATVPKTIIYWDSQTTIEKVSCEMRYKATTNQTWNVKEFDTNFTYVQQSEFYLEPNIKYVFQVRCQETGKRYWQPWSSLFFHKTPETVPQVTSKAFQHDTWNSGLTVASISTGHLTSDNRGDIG

[8] = molecular target: T6, recombinant human Her2 ECD (SinoBiological, cat. 10004-HCCH) (human, UniProt P04626 23-652); assay: SPR, immobilised Her2 ECD
T6 construct: extracellular domain; bought protein

[9] = molecular target: T3, recombinant human CD3E ECD …; assay: SPR, immobilised CD3e ECD, two-state model (kd1)
[10] = molecular target: T7, mouse serum albumin (mouse, UniProt P07724 25-608); assay: SPR, immobilised MSA, pH 5.5
T7 construct: also called MSA; mouse SA

[11] = molecular target: T1, Fc-tagged human PD-L1 extracellular …; assay: SPR, captured Fc-PD-L1 ECD, steady state
[12] = molecular target: T1, Fc-tagged human PD-L1 extracellular …; assay: SPR, captured Fc-PD-L1 ECD, kinetic
[13] = molecular target: T3, recombinant human CD3E ECD …; assay: SPR, immobilised CD3e ECD, two-state model
[14] = molecular target: T4, human PD-L1 expressed on cells …; assay: flow cytometry, inhibition of biotinylated PD-1 binding to HCC827 cells
[15] = molecular target: T3, recombinant human CD3E ECD …; assay: SPR, immobilised CD3e ECD, two-state model (kd1); kd1, first step of the two-state fit
[16] = molecular target: T3, recombinant human CD3E ECD …; assay: SPR, immobilised CD3e ECD, two-state model (ka1); ka1, first step of the two-state fit
[17] = molecular target: T3, recombinant human CD3E ECD …; assay: SPR, immobilised CD3e ECD, two-state model; overall KD of the two-state fit

T7 sequence (P07724 25-608 limits assumed): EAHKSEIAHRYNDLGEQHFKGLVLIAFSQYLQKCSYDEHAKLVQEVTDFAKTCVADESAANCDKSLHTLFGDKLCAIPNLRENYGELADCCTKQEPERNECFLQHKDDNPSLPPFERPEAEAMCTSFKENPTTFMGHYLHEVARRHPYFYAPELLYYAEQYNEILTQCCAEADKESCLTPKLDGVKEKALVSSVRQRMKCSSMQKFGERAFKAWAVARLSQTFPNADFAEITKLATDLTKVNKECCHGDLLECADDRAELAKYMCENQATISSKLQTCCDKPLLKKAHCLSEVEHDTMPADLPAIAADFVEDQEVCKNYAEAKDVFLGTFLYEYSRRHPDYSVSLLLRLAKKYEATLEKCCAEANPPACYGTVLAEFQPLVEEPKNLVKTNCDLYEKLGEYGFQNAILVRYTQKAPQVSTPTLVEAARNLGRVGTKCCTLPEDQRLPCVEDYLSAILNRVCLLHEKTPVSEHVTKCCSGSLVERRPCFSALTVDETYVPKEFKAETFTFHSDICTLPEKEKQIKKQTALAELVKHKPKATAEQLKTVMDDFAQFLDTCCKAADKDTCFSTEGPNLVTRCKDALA
T3 sequence (P07766 23-126): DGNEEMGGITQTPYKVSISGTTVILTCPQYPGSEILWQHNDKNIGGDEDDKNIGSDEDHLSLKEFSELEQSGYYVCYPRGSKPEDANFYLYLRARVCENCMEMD

fold reduction of affinity vs the original domain [1]: > 100 fold
Kd [2]: 7.52 nM
koff [2]: 0.0135 s⁻¹
kon [2]: 1.8e+06 M⁻¹ s⁻¹
B1: PRO1076 (scFv, V domains shown)
VH: QVQLQESGPGLVKPSETLSLTCKVSGFSFSSGYDMCWIRQPPGKGLEWIGCVVAGSVDITYYASWAKGRVTISVDSSKNQFSLKLSSVTAADTAVYYCARKDAYSDAFNLWGQGTLVTVSS
VL: DIQMTQSPSSLSASVGDRVTITCQASQSINDYLAWYQQKPGKAPKLLIYKASTLASGVPSRFSGSGSGTDFTLTISSLQPEDFATYYCQQAYIITDIDNVFGTGTKVTVLG
notes: also called 33-03-G02 VL-G109A

Kd [3]: 0.87 nM
koff [3]: 0.000121 s⁻¹
kon [3]: 139000 M⁻¹ s⁻¹
kon [4]: 222000 M⁻¹ s⁻¹
IC50, NFAT reporter, CHO-PD-L1 (A2 clone) cells [5]: 10.5 nM
IC50, NFAT reporter, HCC1954 cells [5]: 2.29 nM
rel. max. activation vs PRO1497, NFAT reporter, HCC1954 cells [5]: 78%
rel. max. activation vs PRO1497 on HCC1954, NFAT reporter, CHO-PD-L1 (A2 clone) cells [5]: 42%
IC50 [6]: 0.528 µg/mL
Kd [8]: 0.354 nM
koff [8]: 5.56e-05 s⁻¹
kon [8]: 157000 M⁻¹ s⁻¹
koff [9]: 0.00516 s⁻¹
Kd [10]: 19.5 nM
koff [10]: 0.00112 s⁻¹
kon [10]: 57500 M⁻¹ s⁻¹
Kd [11]: 809 nM
Kd [12]: 284 nM
koff [12]: 0.00117 s⁻¹
kon [12]: 4120 M⁻¹ s⁻¹
KD1 [13]: 23.2 nM
Kd [13]: 12.7 nM
kd2 [13]: 0.0042 s⁻¹
IC50 [14]: 46 µg/mL
B2: PRO1544 (multispecific antibody)
chain 1: DIQMTQSPSSLSASVGDRVTITCQASQSINDYLAWYQQKPGKAPKLLIYKASTLASGVPSRFSGSGSGTDFTLTISSLQPEDFATYYCQAAYIITDIDNVFGTGTKVTVLGGGGGSGGGGSGGGGSGGGGSQVQLQESGPGLVKPSETLSLTCKVSGFSFSSGYDMCWIRQPPGKGLEWIGCVVAGSVDITYYASWAKGRVTISVDSSKNQFSLKLSSVTAADTAVYYCARKDAYSDAFNLWGQGTLVTVSSGGGGSGGGGSDVVMTQSPSSLSASVGDRVTITCQASQIISSRSAWYQQKPGQPPKLLIYQASKLASGVPSRFSGSGSGTDFTLTISSLQPEDFATYYCQCTYIDSNFGAFGCGTKLTVLGGGSGGSDIQMTQSPSSLSASVGDRVTITCQSSQSVFSNNYLAWFQQKPGQSPKRLIYSASTLASGVPSRFSGSGSGTDFTLTISSLQPEDFATYYCLGSYACSSADCYVFGTGTKVTVLG
chain 2: not shown
binding result [7]: no binding (tested: 90 nM highest concentration)

koff [15]: 0.00645 s⁻¹
Kd [3]: 0.693 nM
koff [3]: 0.000119 s⁻¹
kon [3]: 171000 M⁻¹ s⁻¹
IC50, NFAT reporter, CHO-PD-L1 (A2 clone) cells [5]: 26 nM
IC50, NFAT reporter, HCC1954 cells [5]: 12.2 nM
rel. max. activation vs PRO1497, NFAT reporter, HCC1954 cells [5]: 67%
rel. max. activation vs PRO1497 on HCC1954, NFAT reporter, CHO-PD-L1 (A2 clone) cells [5]: 59%
kon [16]: 169000 M⁻¹ s⁻¹
IC50 [6]: 4.14 µg/mL
Kd [7]: 1.52 nM
koff [7]: 0.000471 s⁻¹
kon [7]: 309000 M⁻¹ s⁻¹
Kd [17]: 16.7 nM
Kd [10]: 15.9 nM
koff [10]: 0.00108 s⁻¹
kon [10]: 67900 M⁻¹ s⁻¹
Kd [11]: 879 nM
Kd [12]: 1130 nM
koff [12]: 0.0022 s⁻¹
kon [12]: 1950 M⁻¹ s⁻¹
KD1 [13]: 38.2 nM
kd2 [13]: 0.00432 s⁻¹
IC50 [14]: 88.1 µg/mL
B3: PRO1545 (multispecific antibody)
chain 1: B2 chain 1
chain 2: DIQMTQSPSSLSASVGDRVTITCQASENIYSFLAWYQQKPGKAPKLLIYSASKLAAGVPSRFSGSGSGTDFTLTISSLQPEDFATYYCQQTNRYSNPDIYNVFGTGTKVTVLGGGGGSGGGGSGGGGSGGGGSEVQLVESGGGLVQPGGSLRLSCAASGIDFNSNYYMCWVRQAPGKGLEWIGCIYVGSHVNTYYANWAKGRFTISRDNSKNTVYLQMNSLRAEDTAVYYCATSGSSVLYFKFWGQGTLVTVSSGGGGSGGGGSEVQLVESGGGLVQPGGSLRLSCAASGFSLSSYDMSWVRQAPGKGLAWIGASYASGPTYYASWAKGRFTISRDNSKNTVYLQMNSLRAEDTATYFCARGGWTGTSHSNIWGQGTLVTVSSGGGSGGGSEVQLVESGGGLVQPGGSLRLSCAASGFSFSSSYWICWVRQAPGKCLEWVGCVFTGDGTTYYASWAKGRFTISRDNSKNTVYLQMNSLRAEDTATYFCARPVSVYYYGMDLWGQGTLVTVSS
binding result [8]: no binding (tested: 90 nM highest concentration)

koff [15]: 0.00752 s⁻¹
Kd [3]: 0.797 nM
koff [3]: 0.000134 s⁻¹
kon [3]: 168000 M⁻¹ s⁻¹
IC50, NFAT reporter, CHO-PD-L1 (A2 clone) cells [5]: 31.5 nM
IC50, NFAT reporter, HCC1954 cells [5]: 95.4 nM
rel. max. activation vs PRO1497, NFAT reporter, HCC1954 cells [5]: 28%
rel. max. activation vs PRO1497 on HCC1954, NFAT reporter, CHO-PD-L1 (A2 clone) cells [5]: 60%
kon [16]: 197000 M⁻¹ s⁻¹
IC50 [6]: 51.9 µg/mL
Kd [7]: 0.848 nM
koff [7]: 0.000388 s⁻¹
kon [7]: 458000 M⁻¹ s⁻¹
Kd [17]: 18.3 nM
Kd [10]: 17.3 nM
koff [10]: 0.00116 s⁻¹
kon [10]: 67000 M⁻¹ s⁻¹
Kd [11]: 380 nM
Kd [12]: 14.3 nM
koff [12]: 0.000345 s⁻¹
kon [12]: 24100 M⁻¹ s⁻¹
KD1 [13]: 38.2 nM
kd2 [13]: 0.00533 s⁻¹
IC50 [14]: 254 µg/mL
B4: PRO1546 (multispecific antibody)
chain 1: DIQMTQSPSSLSASVGDRVTITCQASENIYSFLAWYQQKPGKAPKLLIYSASKLAAGVPSRFSGSGSGTDFTLTISSLQPEDFATYYCQQTNRYSNPDIYNVFGTGTKVTVLGGGGGSGGGGSGGGGSGGGGSEVQLVESGGGLVQPGGSLRLSCAASGIDFNSNYYMCWVRQAPGKGLEWIGCIYVGSHVNTYYANWAKGRFTISRDNSKNTVYLQMNSLRAEDTAVYYCATSGSSVLYFKFWGQGTLVTVSSGGGGSGGGGSDVVMTQSPSSLSASVGDRVTITCQASQIISSRSAWYQQKPGQPPKLLIYQASKLASGVPSRFSGSGSGTDFTLTISSLQPEDFATYYCQCTYIDSNFGAFGCGTKLTVLGGGSGGSDIQMTQSPSSLSASVGDRVTITCQSSQSVFSNNYLAWFQQKPGQSPKRLIYSASTLASGVPSRFSGSGSGTDFTLTISSLQPEDFATYYCLGSYACSSADCYVFGTGTKVTVLG
chain 2: DIQMTQSPSSLSASVGDRVTITCQASQSINDYLAWYQQKPGKAPKLLIYKASTLASGVPSRFSGSGSGTDFTLTISSLQPEDFATYYCQAAYIITDIDNVFGTGTKVTVLGGGGGSGGGGSGGGGSGGGGSQVQLQESGPGLVKPSETLSLTCKVSGFSFSSGYDMCWIRQPPGKGLEWIGCVVAGSVDITYYASWAKGRVTISVDSSKNQFSLKLSSVTAADTAVYYCARKDAYSDAFNLWGQGTLVTVSSGGGGSGGGGSEVQLVESGGGLVQPGGSLRLSCAASGFSLSSYDMSWVRQAPGKGLAWIGASYASGPTYYASWAKGRFTISRDNSKNTVYLQMNSLRAEDTATYFCARGGWTGTSHSNIWGQGTLVTVSSGGGSGGGSEVQLVESGGGLVQPGGSLRLSCAASGFSFSSSYWICWVRQAPGKCLEWVGCVFTGDGTTYYASWAKGRFTISRDNSKNTVYLQMNSLRAEDTATYFCARPVSVYYYGMDLWGQGTLVTVSS
binding result [8]: no binding (tested: 90 nM highest concentration)
